# Data: patent publication US20050163775A1, “Combination therapy for B cell disorders” (Genentech, Inc., priority 2003, published 2005)
# Bridges are numbered along the chain shown (N, C = ends). Where no end group is shown, it is not given here.
# Molecular target: T1, human BAFF (residues 82-285) (human, UniProt Q9Y275 82-285)
# T1 construct: Coated on plates in the ELISAs; also used biotinylated or free in solution for phage sorting; also called BAFF82-285; BLyS82-285
# Assay: phage display selection on BAFF
# T1 sequence (Q9Y275 82-285): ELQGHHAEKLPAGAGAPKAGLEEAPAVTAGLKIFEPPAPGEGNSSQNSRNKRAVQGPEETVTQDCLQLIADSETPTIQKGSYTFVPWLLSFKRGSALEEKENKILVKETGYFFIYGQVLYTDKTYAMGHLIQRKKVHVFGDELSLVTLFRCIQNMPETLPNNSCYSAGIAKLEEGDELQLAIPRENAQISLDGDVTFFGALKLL
row,Binder,binding result
1,ECFDGLVNAWVDCGLLR [SEQ ID NO 129],binds
2,ECFDPLVLRWVPCSALH (disulfide 2-13 (inferred)) [SEQ ID NO 136],binds
3,ECFDDLVRHWVPCDLLT [SEQ ID NO 131],binds
4,ECFDPLVNAWVPCAVLH (disulfide 2-13 (inferred)) [SEQ ID NO 135],binds
5,ECFDVLVSAWVDCARLN (disulfide 2-13 (inferred)) [SEQ ID NO 109],binds
6,ECFDPLVRDWVPCDLIH (disulfide 2-13 (inferred)) [SEQ ID NO 138],binds
7,ECFDSLVNAWVPCHVLT (disulfide 2-13 (inferred)) [SEQ ID NO 142],binds
8,ECFDRLVNRWVPCNLIV (disulfide 2-13 (inferred)) [SEQ ID NO 113],binds
9,ECFDLLVRSWVPCTLLS [SEQ ID NO 91],binds
10,ECFDLLVRRWVPCELLV [SEQ ID NO 79],binds
11,ECFDRLVGHWVPCAALI (disulfide 2-13 (inferred)) [SEQ ID NO 98],binds
12,ECFDILVDRWVPCAILH (disulfide 2-13 (inferred)) [SEQ ID NO 97],binds
13,ECFDLLVRGWVPCEKLM [SEQ ID NO 73],binds
14,ECFDDLVRNWVPCALLN [SEQ ID NO 134],binds
15,ECFDLLVRAWVRCDMLL [SEQ ID NO 72],binds
16,ECFDALVHRWVPCDLLR [SEQ ID NO 137],binds
17,ECFDLLVRVWVPCSRLY [SEQ ID NO 82],binds
18,ECFDLLVREWVPCRILQ [SEQ ID NO 85],binds

row,Binder,binding result
1,ECFDPLVRHWVPCRALD [SEQ ID NO 130],binds
2,ECFDLLVRSWVPCGTLM [SEQ ID NO 69],binds
3,ECFDLLVNSWVPCSVIA (disulfide 2-13 (inferred)) [SEQ ID NO 139],binds
4,ECFDLLVRAWVPCWLRL [SEQ ID NO 74],binds
5,ECFDLLVRTWVECSLLN [SEQ ID NO 68],binds
6,ECFDILVNRWVPCGALT (disulfide 2-13 (inferred)) [SEQ ID NO 133],binds
7,ECFDPLVGRWVPCTLLH (disulfide 2-13 (inferred)) [SEQ ID NO 104],binds
8,ECFDLLVRAWVPCSYLS [SEQ ID NO 89],binds
9,ECFDLLVRQWVPCERIR [SEQ ID NO 65],binds
10,ECFDPLVRVWVDCSILD (disulfide 2-13 (inferred)) [SEQ ID NO 100],binds
11,ECFDLLVRRWVPCGLLR [SEQ ID NO 75],binds
12,ECFDTLVRAWVPCSHLT (disulfide 2-13 (inferred)) [SEQ ID NO 140],binds
13,ECFDLLVRQWVPCRALM [SEQ ID NO 88],binds
14,ECFDLLVRGWVPCSVLQ [SEQ ID NO 93],binds
15,ECFDLLVRKWVPCQVLG [SEQ ID NO 67],binds
16,ECFDLLVRSWVPCYSLK [SEQ ID NO 80],binds
17,ECFDLLVRSWVPCHMLR [SEQ ID NO 70],binds

# Next, values leading:
row,binding result,Binder
1,binds,ECFDLLVRRWVPCEMLG [SEQ ID NO 66]
2,binds,ECFDLLVRQWVSCELLS [SEQ ID NO 95]
3,binds,ECFDLLVRRWVDCAFLH [SEQ ID NO 76]
4,binds,ECFDRLVNLWVDCALLN (disulfide 2-13 (inferred)) [SEQ ID NO 108]
5,binds,ECFDPLVARWVPCHLIN (disulfide 2-13 (inferred)) [SEQ ID NO 99]
6,binds,ECFDLLVRGWVDCSLLL [SEQ ID NO 96]
7,binds,ECFDLLVRKWVPCSTFH (disulfide 2-13 (inferred)) [SEQ ID NO 92]
8,binds,ECFDSLVRLWVPCNLLR [SEQ ID NO 110]
9,binds,ECFDPLVGHWVPCSVLT (disulfide 2-13 (inferred)) [SEQ ID NO 106]
10,binds,ECFDLLVRAWVPCNELR [SEQ ID NO 84]
11,binds,ECFDLLVRAWVPCSVLK [SEQ ID NO 94]
12,binds,ECFDLLVRRWVPCSLVK [SEQ ID NO 87]
13,binds,ECFDLLVRAWVPCHLID [SEQ ID NO 105]
14,binds,ECFDPLVNRWVDCVALH (disulfide 2-13 (inferred)) [SEQ ID NO 107]
15,binds,ECFDSLVRIWVPCGLID [SEQ ID NO 141]
16,binds,ECFDLLVRTWVPCQAIL (disulfide 2-13 (inferred)) [SEQ ID NO 71]
17,binds,ECFDLLVRDWVPCSLLF [SEQ ID NO 90]
18,binds,ECFDLLVRQWVSCQVFA (disulfide 2-13 (inferred)) [SEQ ID NO 81]
19,binds,ECFDVLVNAWVDCAVLR (disulfide 2-13 (inferred)) [SEQ ID NO 128]
20,binds,ECFDLLVRQWVPCGALG [SEQ ID NO 83]
21,binds,ECFDLLVRRWVPCSWLL [SEQ ID NO 86]
22,binds,ECFDILVNAWVPCRVIG (disulfide 2-13 (inferred)) [SEQ ID NO 112]
23,binds,ECFDSLVNAWVPCSAIR (disulfide 2-13 (inferred)) [SEQ ID NO 101]
24,binds,ECFDPLVRIWVACDRLA [SEQ ID NO 103]
25,binds,ECFDLLVRSWVPCSSLG [SEQ ID NO 77]
26,binds,ECFDVLVRAWVPCRALT (disulfide 2-13 (inferred)) [SEQ ID NO 132]
27,binds,ECFDLLVNRWVDCRLLI [SEQ ID NO 102]
